According to patent US20230414735A1 (BIONTECH US, published 2023):

B1: FELLSTPPL (peptide)
peptide: FELLSTPPL
notes: MYC, P57S
B2: YLGNHMNIA (peptide)
peptide: YLGNHMNIA
notes: KIT, V654A
B3: LSLMPAHWSI (peptide)
peptide: LSLMPAHWSI
notes: JAK1(-1)
B4: FLQEQYHEA (peptide)
peptide: FLQEQYHEA
notes: GATA3 YHEA
B5: YVMAYVMAGV (peptide)
peptide: YVMAYVMAGV
notes: HER2, G776insYVMA
B6: FLLALWECSL (peptide)
peptide: FLLALWECSL
notes: MSH3(-1)
B7: YMFLKAESKI (peptide)
peptide: YMFLKAESKI
notes: GATA3 CSNH
B8: SQIMSLWGL (peptide)
peptide: SQIMSLWGL
notes: NAB:STAT6 (variant 1 of Chmielecki et al.)
B9: FQNGKMALSA (peptide)
peptide: FQNGKMALSA
notes: FRG1B, L52S
B10: SLGNHLCPL (peptide)
peptide: SLGNHLCPL
notes: MLL2, CRLS
B11: YVMAYVMAG (peptide)
peptide: YVMAYVMAG
notes: HER2, G776insYVMA
B12: SLMPAHWSI (peptide)
peptide: SLMPAHWSI
notes: JAK1(-1)
B13: LKKLRSPL (peptide)
peptide: LKKLRSPL
notes: also called SMAP1(-1)

biological target: HLA-B08:01 (human); assay: competition with 125I probe peptide on purified HLA
Method: Immunol. 31:813, 1994; Sidney et al., in Current Protocols in Immunology, Margulies, Ed., John Wiley & Sons, New York, Section 18.3, 1998).
(§1) Following incubation, MHC-peptide complexes are separated from free peptide by gel filtration on 7.8 mm×15 cm TSK200 columns (TosoHaas 16215, Montgomeryville, PA). Because the large size of the radiolabeled peptide used for the DRB1*1501 (DR2w2(31) assay makes separation of bound from unbound peaks more difficult under these conditions, all DRB1*1501 (DR2w2(31) assays were performed using a 7.8 mm×30 cm TSK2000 column eluted at 0.6 mLs/min. The eluate from the TSK columns is passed through a Beckman 170 radioisotope detector, and radioactivity is plotted and integrated using a Hewlett-Packard 3396A integrator, and the fraction of peptide bound is determined.
(§2) Since under these conditions [label]<[HLA] and IC₅₀≥[HLA], the measured IC₅₀ values are reasonable approximations of the true KD values. […] For database purposes, and inter-experiment comparisons, relative binding values are compiled. These values can subsequently be converted back into IC₅₀ nM values by dividing the IC₅₀ nM of the positive controls for inhibition by the relative binding of the peptide of interest.

Row | IC50 [nM] | Binder
1 | 3180 | B1
2 | 872 | B2

biological target: HLA-B08:01 (human); assay: pMHC-I dissociation half-life, 125I-b2m
Method: Briefly, synthetic genes encoding biotinylated MHC-I heavy and light chains are expressed in E. coli and purified from inclusion bodies using standard methods. The light chain (β2m) is radio-labeled with iodine (¹²⁵I), and combined with the purified MHC-I heavy chain and peptide of interest at 18° C. to initiate pMHC-I complex formation. These reactions are carried out in streptavidin coated microplates to bind th biotinylated MHC-I heavy chains to the surface and allow measurement of radiolabeled light chain to monitor complex formation. Dissociation is initiated by addition of higher concentations of unlabled light-chain and incubation at 37° C. Stability is defined as the length of time in hours it takes for half of the complexes to dissociate, as measured by scintillation counts

Row | Stability (T1/2 (h)) [h] | Binder
3 | 0 | B3
4 | 0 | B4
5 | 0 | B5
6 | 0 | B6
7 | 0.4 | B7
8 | 0 | B8
9 | 0 | B9
10 | 0 | B1
11 | 0.5 | B10
12 | 1.2 | B11
13 | 0 | B2
14 | 0 | B12

biological target: HLA-B08:01 (human); assay: competition with 125I probe peptide for purified HLA class I
Method: as §1, §2

Row | IC50 [nM] | Binder
15 | 0.6 | B13
